As a reminder, the stoichiometry N is the number of molecules, sites or subunits per partner or assembly.

This is an account of results in paper PMC6042327 (BMC Biology, 2018).

Sequences and labels used below:
B1: SGTA C-terminal domain (CT; residues 213-313) (domain or fragment, human, UniProt O43765 213-313, looked up)
chain: TGGVGSFDIAGLLNNPGFMSMASNLMNNPQIQQLMSGMISGGNNPLGTPGTSPSQNDLASLIQAGQQFAQQMQQQNPELIEQLRSQIRSRTPSASNDDQQE
notes: small glutamine-rich tetratricopeptide repeat-containing protein alpha (SGTA), human, residues 213-313 (complete C-terminal domain); also called C-terminal domain of SGTA; not shown: thioredoxin A, N-terminal, cleaved; His6, N-terminal, cleaved
B2: SGTA NT-TPR (1-213) (domain or fragment, human, UniProt O43765 1-213, looked up)
chain: MDNKKRLAYAIIQFLHDQLRHGGLSSDAQESLEVAIQCLETAFGVTVEDSDLALPQTLPEIFEAAATGKEMPQDLRSPARTPPSEEDSAEAERLKTEGNEQMKVENFEAAVHFYGKAIELNPANAVYFCNRAAAYSKLGNYAGAVQDCERAICIDPAYSKAYGRMGLALSSLNKHVEAVAYYKKALELDPDNETYKSNLKIAELKLREAPSPT
notes: SGTA, human, residues 1-213 (N-terminal dimerisation domain and TPR domain); also called version lacking the C-terminal domain; not shown: thioredoxin A, N-terminal, cleaved; His6, N-terminal, cleaved
B3: FL SGTA C153 single-cysteine variant, MTSL spin-labelled (natural protein, human, UniProt O43765 1-313, looked up)
chain: MDNKKRLAYAIIQFLHDQLRHGGLSSDAQESLEVAIQSLETAFGVTVEDSDLALPQTLPEIFEAAATGKEMPQDLRSPARTPPSEEDSAEAERLKTEGNEQMKVENFEAAVHFYGKAIELNPANAVYFSNRAAAYSKLGNYAGAVQDSERAICIDPAYSKAYGRMGLALSSLNKHVEAVAYYKKALELDPDNETYKSNLKIAELKLREAPSPTGGVGSFDIAGLLNNPGFMSMASNLMNNPQIQQLMSGMISGGNNPLGTPGTSPSQNDLASLIQAGQQFAQQMQQQNPELIEQLRSQIRSRTPSASNDDQQE
modifications: MTSL spin label on cysteine 153
notes: SGTA, human, residues 1-313; the other three wild-type cysteines changed to serine, wild-type C153 kept; source: E. coli, prepared in the same way as the wild-type versions, MTSL spin-labelled, size-exclusion chromatography; not shown: thioredoxin A, N-terminal, cleaved; His6, N-terminal, cleaved
B4: FL SGTA S88C single-cysteine mutant, MTSL spin-labelled (natural protein, human, UniProt O43765 1-313, looked up)
chain: MDNKKRLAYAIIQFLHDQLRHGGLSSDAQESLEVAIQSLETAFGVTVEDSDLALPQTLPEIFEAAATGKEMPQDLRSPARTPPSEEDCAEAERLKTEGNEQMKVENFEAAVHFYGKAIELNPANAVYFSNRAAAYSKLGNYAGAVQDSERAISIDPAYSKAYGRMGLALSSLNKHVEAVAYYKKALELDPDNETYKSNLKIAELKLREAPSPTGGVGSFDIAGLLNNPGFMSMASNLMNNPQIQQLMSGMISGGNNPLGTPGTSPSQNDLASLIQAGQQFAQQMQQQNPELIEQLRSQIRSRTPSASNDDQQE
modifications: MTSL spin label on cysteine 88
notes: SGTA, human, residues 1-313; all four wild-type cysteines changed to serine, then S88C; source: E. coli, prepared in the same way as the wild-type versions, MTSL spin-labelled, size-exclusion chromatography; not shown: thioredoxin A, N-terminal, cleaved; His6, N-terminal, cleaved
B5: FL SGTA S197C single-cysteine mutant, MTSL spin-labelled (natural protein, human, UniProt O43765 1-313, looked up)
chain: MDNKKRLAYAIIQFLHDQLRHGGLSSDAQESLEVAIQSLETAFGVTVEDSDLALPQTLPEIFEAAATGKEMPQDLRSPARTPPSEEDSAEAERLKTEGNEQMKVENFEAAVHFYGKAIELNPANAVYFSNRAAAYSKLGNYAGAVQDSERAISIDPAYSKAYGRMGLALSSLNKHVEAVAYYKKALELDPDNETYKCNLKIAELKLREAPSPTGGVGSFDIAGLLNNPGFMSMASNLMNNPQIQQLMSGMISGGNNPLGTPGTSPSQNDLASLIQAGQQFAQQMQQQNPELIEQLRSQIRSRTPSASNDDQQE
modifications: MTSL spin label on cysteine 197
notes: SGTA, human, residues 1-313; all four wild-type cysteines changed to serine, then S197C; source: E. coli, prepared in the same way as the wild-type versions, MTSL spin-labelled, size-exclusion chromatography; not shown: thioredoxin A, N-terminal, cleaved; His6, N-terminal, cleaved
B6: FL SGTA S136C single-cysteine mutant, MTSL spin-labelled (natural protein, human, UniProt O43765 1-313, looked up)
chain: MDNKKRLAYAIIQFLHDQLRHGGLSSDAQESLEVAIQSLETAFGVTVEDSDLALPQTLPEIFEAAATGKEMPQDLRSPARTPPSEEDSAEAERLKTEGNEQMKVENFEAAVHFYGKAIELNPANAVYFSNRAAAYCKLGNYAGAVQDSERAISIDPAYSKAYGRMGLALSSLNKHVEAVAYYKKALELDPDNETYKSNLKIAELKLREAPSPTGGVGSFDIAGLLNNPGFMSMASNLMNNPQIQQLMSGMISGGNNPLGTPGTSPSQNDLASLIQAGQQFAQQMQQQNPELIEQLRSQIRSRTPSASNDDQQE
modifications: MTSL spin label on cysteine 136
notes: SGTA, human, residues 1-313; all four wild-type cysteines changed to serine, then S136C; source: E. coli, prepared in the same way as the wild-type versions, MTSL spin-labelled, size-exclusion chromatography; not shown: thioredoxin A, N-terminal, cleaved; His6, N-terminal, cleaved
B7: SGTA NT-TPR S88C single-cysteine mutant, MTSL spin-labelled (domain or fragment, human, UniProt O43765 1-213, looked up)
chain: MDNKKRLAYAIIQFLHDQLRHGGLSSDAQESLEVAIQSLETAFGVTVEDSDLALPQTLPEIFEAAATGKEMPQDLRSPARTPPSEEDCAEAERLKTEGNEQMKVENFEAAVHFYGKAIELNPANAVYFSNRAAAYSKLGNYAGAVQDSERAISIDPAYSKAYGRMGLALSSLNKHVEAVAYYKKALELDPDNETYKSNLKIAELKLREAPSPT
modifications: MTSL spin label on cysteine 88
notes: SGTA, human, residues 1-213; all four wild-type cysteines changed to serine, then S88C; also called C-terminal deletion mutant S88C; source: E. coli, prepared in the same way as the wild-type versions, MTSL spin-labelled, size-exclusion chromatography; not shown: thioredoxin A, N-terminal, cleaved; His6, N-terminal, cleaved
B8: SGTA NT-TPR S197C single-cysteine mutant, MTSL spin-labelled (domain or fragment, human, UniProt O43765 1-213, looked up)
chain: MDNKKRLAYAIIQFLHDQLRHGGLSSDAQESLEVAIQSLETAFGVTVEDSDLALPQTLPEIFEAAATGKEMPQDLRSPARTPPSEEDSAEAERLKTEGNEQMKVENFEAAVHFYGKAIELNPANAVYFSNRAAAYSKLGNYAGAVQDSERAISIDPAYSKAYGRMGLALSSLNKHVEAVAYYKKALELDPDNETYKCNLKIAELKLREAPSPT
modifications: MTSL spin label on cysteine 197
notes: SGTA, human, residues 1-213; all four wild-type cysteines changed to serine, then S197C; also called C-terminal deletion mutant S197C; source: E. coli, prepared in the same way as the wild-type versions, MTSL spin-labelled, size-exclusion chromatography; not shown: thioredoxin A, N-terminal, cleaved; His6, N-terminal, cleaved
B9: SGTA NT-TPR C153 single-cysteine variant, MTSL spin-labelled (domain or fragment, human, UniProt O43765 1-213, looked up)
chain: MDNKKRLAYAIIQFLHDQLRHGGLSSDAQESLEVAIQSLETAFGVTVEDSDLALPQTLPEIFEAAATGKEMPQDLRSPARTPPSEEDSAEAERLKTEGNEQMKVENFEAAVHFYGKAIELNPANAVYFSNRAAAYSKLGNYAGAVQDSERAICIDPAYSKAYGRMGLALSSLNKHVEAVAYYKKALELDPDNETYKSNLKIAELKLREAPSPT
modifications: MTSL spin label on cysteine 153
notes: SGTA, human, residues 1-213; the other three wild-type cysteines changed to serine, wild-type C153 kept; also called C-terminal deletion mutant C153; source: E. coli, prepared in the same way as the wild-type versions, MTSL spin-labelled, size-exclusion chromatography; not shown: thioredoxin A, N-terminal, cleaved; His6, N-terminal, cleaved
B10: SGTA NT-TPR S136C single-cysteine mutant, MTSL spin-labelled (domain or fragment, human, UniProt O43765 1-213, looked up)
chain: MDNKKRLAYAIIQFLHDQLRHGGLSSDAQESLEVAIQSLETAFGVTVEDSDLALPQTLPEIFEAAATGKEMPQDLRSPARTPPSEEDSAEAERLKTEGNEQMKVENFEAAVHFYGKAIELNPANAVYFSNRAAAYCKLGNYAGAVQDSERAISIDPAYSKAYGRMGLALSSLNKHVEAVAYYKKALELDPDNETYKSNLKIAELKLREAPSPT
modifications: MTSL spin label on cysteine 136
notes: SGTA, human, residues 1-213; all four wild-type cysteines changed to serine, then S136C; also called C-terminal deletion mutant S136C; source: E. coli, prepared in the same way as the wild-type versions, MTSL spin-labelled, size-exclusion chromatography; not shown: thioredoxin A, N-terminal, cleaved; His6, N-terminal, cleaved

One series concerns the molecule itself. In words: native MS; protein 5-10 uM in 0.20-0.75 M ammonium acetate pH 7.0, electrosprayed, source temperature 20 °C; self-association (monomer to dimer).
Turning to B1, the “stoichiometry N” value amounted to 2. The same measure, in the same setting: in the case of B2 it was 2.

A further series concerns the molecule itself. Kind of series: DEER (EPR) spectroscopy; MTSL spin label on a single cysteine; distances between homologous sites in each monomer; 300-500 uM, D2O buffer with 50% d8-glycerol, flash frozen, measured at 50 K.
In the case of B3, the binding result is “binds”. For the protein B4, the binding result was “binds”. In the case of B5, the binding result is given as “binds”. Same read-out and setting: in the case of B6 it was “binds”; in that of B7, “binds”. For B8, the binding result is on record as “binds”.

Take B9: the binding result is on record as “binds”. Turning to B10, the binding result was “binds”.
